Changes are numbered by the printed parent chain. Numbers in names are those of the source. One block for each binder: values may come before it.
Legend:
[1] = biological target: T1, human ALPP (alkaline phosphatase, placental type) expressed on the surface of CHO cells (human, UniProt P05187 23-506); assay: flow cytometry on CHO-ALPP cells, apparent KD (KDapp)
T1 construct: also called CHO-ALPP; hALPP
Experimental: (§1) Biparatopic VHH-hFc drug conjugates were assessed for human ALPP, ALPPL2, ALPI and ALPL cell-surface binding by flow cytometry. Binders were screened on CHO cells stably expressing human ALPP, ALPPL2, ALPI or ALPL.
(§2) Cell surface binding of test agents to hALPP isoforms was characterized in four CHO-ALPP isoform transfectant cell lines (CHO-ALPP, CHO-ALPPL2, CHO-ALPI and CHO-ALPL) and the resulting KDapp values determined. Adherent cells were detached from tissue culture flasks by incubating with 0.1% EDTA/PBS solution at 37° C. for […] or until cells detached easily. Cells were re-suspended in ice-cold PBS/2% FCS in 15 ml tubes and centrifuged at 1700 rpm for 5 mins at 4° C. Supernatant was removed and the cell pellet re-suspended in PBS/2% FCS. […] Cells were incubated with 100 μl of test agents at a range of concentrations, plus controls for 1 hr on ice. The sample plate was centrifuged at 1700 rpm for 5 mins at 4° C. The supernatant was removed, and a wash performed by re-suspending the cell pellets in 0.25 mL of ice-cold PBS/2% FCS using a multichannel pipette. Samples were again centrifuged at 1700 rpm for 5 min at 4° C. Supernatant was removed and two further washes performed as described. After the final wash and centrifugation step, excess liquid was removed by blotting the plate on tissue paper. Binding of VHH-hFc agents was determined by adding 100 μl of Fitc-anti-human Ab (ThermoFisher) and incubating for 30 mins on ice in the dark. Wash steps were performed as described previously. All cell pellets were finally re-suspended in 0.28 ml of ice-cold PBS/2% FCS and left on ice in the dark prior to analysis on a Merck-Millipore Guava EasyCyte HT or Thermo Fisher Attune N×T flow cytometer.

[2] = biological target: T2, human ALPI (intestinal alkaline phosphatase) expressed on the surface of CHO cells (human, UniProt P09923 20-503); assay: flow cytometry on CHO-ALPI cells
T2 construct: whole, on cells; The cell-surface form has none; also called CHO-ALPI; hALPI
T2 sequence (looked up): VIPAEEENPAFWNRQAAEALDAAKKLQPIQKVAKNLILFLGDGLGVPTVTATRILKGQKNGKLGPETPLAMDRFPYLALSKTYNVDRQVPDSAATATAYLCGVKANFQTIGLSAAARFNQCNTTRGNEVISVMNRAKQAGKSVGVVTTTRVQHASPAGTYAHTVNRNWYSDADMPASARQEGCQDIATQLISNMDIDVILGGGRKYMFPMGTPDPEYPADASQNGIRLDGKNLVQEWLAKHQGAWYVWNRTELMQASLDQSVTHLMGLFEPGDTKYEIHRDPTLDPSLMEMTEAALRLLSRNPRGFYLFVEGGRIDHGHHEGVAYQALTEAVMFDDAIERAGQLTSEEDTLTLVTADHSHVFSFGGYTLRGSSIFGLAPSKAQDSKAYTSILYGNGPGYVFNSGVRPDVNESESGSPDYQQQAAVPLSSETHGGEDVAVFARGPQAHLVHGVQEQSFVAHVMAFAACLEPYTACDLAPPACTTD

[3] = biological target: T3, human ALPL (tissue non-specific alkaline phosphatase) expressed on the surface of CHO cells (human, UniProt P05186 18-501); assay: flow cytometry, CHO-ALPL cells
T3 construct: whole, on cells; The cell-surface form has none; also called CHO-ALPL; hALPL
T3 sequence (looked up): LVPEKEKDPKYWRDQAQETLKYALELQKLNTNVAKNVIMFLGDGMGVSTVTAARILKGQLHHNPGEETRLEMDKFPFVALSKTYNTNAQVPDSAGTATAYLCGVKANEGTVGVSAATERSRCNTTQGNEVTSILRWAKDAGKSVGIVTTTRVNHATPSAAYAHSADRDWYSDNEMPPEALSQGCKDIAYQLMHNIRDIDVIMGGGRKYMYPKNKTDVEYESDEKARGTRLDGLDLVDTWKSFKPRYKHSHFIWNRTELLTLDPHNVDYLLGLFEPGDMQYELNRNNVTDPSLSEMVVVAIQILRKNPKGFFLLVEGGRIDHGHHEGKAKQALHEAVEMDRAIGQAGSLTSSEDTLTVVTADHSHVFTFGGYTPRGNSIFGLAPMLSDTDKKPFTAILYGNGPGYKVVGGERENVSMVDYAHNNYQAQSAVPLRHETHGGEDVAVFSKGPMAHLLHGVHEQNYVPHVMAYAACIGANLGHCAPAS

[4] = biological target: T3, human ALPL (tissue non-specific …); assay: cell-based or functional assay
[5] = biological target: T2, human ALPI (intestinal alkaline …); assay: cell-based or functional assay
[6] = biological target: T4, human ALPPL2 (alkaline phosphatase, germ cell type) expressed on the surface of CHO cells (human, UniProt P10696 20-503); assay: cell-based or functional assay
T4 sequence (P10696 20-503): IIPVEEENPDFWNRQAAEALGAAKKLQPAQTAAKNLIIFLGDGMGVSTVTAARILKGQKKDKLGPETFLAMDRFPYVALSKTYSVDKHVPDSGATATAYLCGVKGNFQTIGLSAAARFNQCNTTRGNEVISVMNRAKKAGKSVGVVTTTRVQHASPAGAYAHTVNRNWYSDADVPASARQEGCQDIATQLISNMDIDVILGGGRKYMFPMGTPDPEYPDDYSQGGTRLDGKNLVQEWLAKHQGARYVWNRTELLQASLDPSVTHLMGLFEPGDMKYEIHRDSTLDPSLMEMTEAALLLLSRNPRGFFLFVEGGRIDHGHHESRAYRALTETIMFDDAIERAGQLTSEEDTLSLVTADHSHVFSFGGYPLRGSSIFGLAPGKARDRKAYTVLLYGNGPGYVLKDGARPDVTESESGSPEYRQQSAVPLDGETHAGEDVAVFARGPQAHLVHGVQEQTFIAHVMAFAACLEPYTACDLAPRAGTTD

[7] = biological target: T4, human ALPPL2 (alkaline phosphatase, …); assay: flow cytometry on CHO-ALPPL2 cells, apparent KD (KDapp)
Experimental: as §1, §2

T1 sequence (P05187 23-506 limits assumed): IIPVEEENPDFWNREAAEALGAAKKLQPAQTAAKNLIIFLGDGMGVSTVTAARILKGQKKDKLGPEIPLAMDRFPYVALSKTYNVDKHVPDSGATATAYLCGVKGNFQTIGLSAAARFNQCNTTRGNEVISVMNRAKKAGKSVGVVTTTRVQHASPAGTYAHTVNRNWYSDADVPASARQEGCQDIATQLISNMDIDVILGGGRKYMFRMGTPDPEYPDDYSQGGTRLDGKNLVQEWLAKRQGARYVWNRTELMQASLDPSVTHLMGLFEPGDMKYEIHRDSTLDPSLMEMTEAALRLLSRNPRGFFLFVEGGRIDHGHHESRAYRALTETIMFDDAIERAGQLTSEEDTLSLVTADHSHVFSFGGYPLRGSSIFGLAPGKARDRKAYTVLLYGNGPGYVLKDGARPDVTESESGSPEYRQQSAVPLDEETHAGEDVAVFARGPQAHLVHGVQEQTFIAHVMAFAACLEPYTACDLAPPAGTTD

- Kd [1]: 11 nM
- MFI on CHO-ALPI cells at 350 nM as percent of MFI on CHO-ALPP cells (KDapp not-determinable) [2]: ≤ 1%
- Kd [7]: 5.6 nM
B1: A06 E06-hFc (S239/442C T366Y/Y407T), [G4S]1 linker, MC-vc-PAB-MMAE conjugate, #710 (Fc fusion, DAR 4)
chain 1: QVHLVESGGGLVQAGGSLRLSCAASGRTFLSMGWFRQAPGKEREFVAAISWTGGSTGYADSVKGRFTISRESDKETMYLQMNSLKPEDTAVYYCAARGDVYYGGDDATRYKYWGQGTQVTVSSGGGGSEPKSSDKTHTCPPCPAPELLGGPCVFLFPPKPKDTLMISRTPEVTCVVVDVSHEDPEVKFNWYVDGVEVHNAKTKPREEQYNSTYRVVSVLTVLHQDWLNGKEYKCKVSNKALPAPIEKTISKAKGQPREPQVYTLPPSRDELTKNQVSLYCLVKGFYPSDIAVEWESNGQPENNYKTTPPVLDSDGSFFLYSKLTVDKSRWQQGNVFSCSVMHEALHNHYTQKSLCLSPGK
chain 2: QVHLVESGGGLVQAGGSLRLSCAASRRSFSEYAMGWFRQAPGKEREFVAAIGWSGVIEYADSVKGRFTISRDNAKDTVYLQMNSLKPEDTAVYYCAAGLGIRVVSQTPAYWGQGTQVTVSSGGGGSEPKSSDKTHTCPPCPAPELLGGPCVFLFPPKPKDTLMISRTPEVTCVVVDVSHEDPEVKFNWYVDGVEVHNAKTKPREEQYNSTYRVVSVLTVLHQDWLNGKEYKCKVSNKALPAPIEKTISKAKGQPREPQVYTLPPSRDELTKNQVSLTCLVKGFYPSDIAVEWESNGQPENNYKTTPPVLDSDGSFFLTSKLTVDKSRWQQGNVFSCSVMHEALHNHYTQKSLCLSPGK
modifications: MC-vc-PAB-MMAE on Cys of S239C and S442C (EU numbering)
notes: Biparatopic knob-into-hole VHH-hFc heterodimer, DAR 4; The assignment of T366Y to the first named VHH and Y407T to the second follows the order of the name; No paragraph spells out this pair; also called A06-E06-hFc-vcPAB-MMAE; A06-E06 hFc-vc-MMAE
- binding result [3]: no binding (tested: 350 nM (highest concentration))
- IC50 at 96 h, cell-killing of CHO-ALPL cells (estimated from data extrapolation) [4]: ~699 nM
- IC50 at 96 h, cell-killing of CHO-ALPI cells (estimated from data extrapolation) [5]: ~846 nM
- IC50 at 96 h, cell-killing of CHO-ALPPL2 cells [6]: 18.1 nM

- Kd [1]: 8.5 nM
- MFI on CHO-ALPI cells at 350 nM as percent of MFI on CHO-ALPP cells (KDapp not-determinable) [2]: ≤ 1%
- Kd [7]: 3.7 nM
B2: A06 E10-hFc (S239/442C T366Y/Y407T), [G4S]3 linker, MC-vc-PAB-MMAE conjugate, #664 (Fc fusion, DAR 4)
chain 1: QVHLVESGGGLVQAGGSLRLSCAASGRTFLSMGWFRQAPGKEREFVAAISWTGGSTGYADSVKGRFTISRESDKETMYLQMNSLKPEDTAVYYCAARGDVYYGGDDATRYKYWGQGTQVTVSSGGGGSGGGGSGGGGSEPKSSDKTHTCPPCPAPELLGGPCVFLFPPKPKDTLMISRTPEVTCVVVDVSHEDPEVKFNWYVDGVEVHNAKTKPREEQYNSTYRVVSVLTVLHQDWLNGKEYKCKVSNKALPAPIEKTISKAKGQPREPQVYTLPPSRDELTKNQVSLYCLVKGFYPSDIAVEWESNGQPENNYKTTPPVLDSDGSFFLYSKLTVDKSRWQQGNVFSCSVMHEALHNHYTQKSLCLSPGK
chain 2: QVQLVESGGGLVQAGGSLRLSCAVSGRALSDYNIGWFRQAPGKEREFVARKTWDGSSTRYDDSVKGRFTVSIEDAKNTAYLQMSSLKTEDTAVYYCAAGRYSRARGWEYDYWGQGTQVTVSSGGGGSGGGGSGGGGSEPKSSDKTHTCPPCPAPELLGGPCVFLFPPKPKDTLMISRTPEVTCVVVDVSHEDPEVKFNWYVDGVEVHNAKTKPREEQYNSTYRVVSVLTVLHQDWLNGKEYKCKVSNKALPAPIEKTISKAKGQPREPQVYTLPPSRDELTKNQVSLTCLVKGFYPSDIAVEWESNGQPENNYKTTPPVLDSDGSFFLTSKLTVDKSRWQQGNVFSCSVMHEALHNHYTQKSLCLSPGK
modifications: MC-vc-PAB-MMAE on Cys of S239C and S442C (EU numbering)
notes: Biparatopic knob-into-hole VHH-hFc heterodimer, DAR 4; The assignment of T366Y to the first named VHH and Y407T to the second follows the order of the name; No paragraph spells out this pair; also called A06-E10 hFc-vcPAB-MMAE; A06-E10hFc-vc-MMAE
- binding result [3]: no binding (tested: 350 nM (highest concentration))
- IC50 at 96 h, cell-killing of CHO-ALPL cells [4]: > 1000 nM
- IC50 at 96 h, cell-killing of CHO-ALPI cells [5]: > 1000 nM
- IC50 at 96 h, cell-killing of CHO-ALPPL2 cells [6]: 7.3 nM

- Kd [1]: 9.8 nM
- MFI on CHO-ALPI cells at 350 nM as percent of MFI on CHO-ALPP cells (KDapp not-determinable) [2]: ≤ 1%
- Kd [7]: 4.9 nM
B3: A06 F05-hFc (S239/442C T366Y/Y407T), [G4S]3 linker, MC-vc-PAB-MMAE conjugate, #665 (Fc fusion, DAR 4)
chain 1: B2 chain 1
chain 2: B2 chain 2 with V24A, L29F, S30G, K51R, E73D, D74N, S84N, A104V
modifications: MC-vc-PAB-MMAE on Cys of S239C and S442C (EU numbering)
notes: Biparatopic knob-into-hole VHH-hFc heterodimer, DAR 4; also called A06-F05 hFc-vcPAB-MMAE; A06-F05 hFc-vc-MMAE
- binding result [3]: no binding (tested: 350 nM (highest concentration))
- IC50 at 96 h, cell-killing of CHO-ALPL cells [4]: > 1000 nM
- IC50 at 96 h, cell-killing of CHO-ALPI cells [5]: > 1000 nM
- IC50 at 96 h, cell-killing of CHO-ALPPL2 cells [6]: 7.9 nM

From patent US20260216242A1 (ALMAC DISCOVERY, published 2026)
